Source: patent US20250270319A1
Numbering of substitutions follows the chain as printed. Each block holds one binder with its values, some of them ahead of it.

Molecular target: recombinant cynomolgus CD33 protein (NovoProtein) (cynomolgus)
Test: ELISA, plate coated with recombinant CD33

Sequence of recombinant cynomolgus CD33 protein (NovoProtein) (cynomolgus) (chain, as listed by the source limits assumed): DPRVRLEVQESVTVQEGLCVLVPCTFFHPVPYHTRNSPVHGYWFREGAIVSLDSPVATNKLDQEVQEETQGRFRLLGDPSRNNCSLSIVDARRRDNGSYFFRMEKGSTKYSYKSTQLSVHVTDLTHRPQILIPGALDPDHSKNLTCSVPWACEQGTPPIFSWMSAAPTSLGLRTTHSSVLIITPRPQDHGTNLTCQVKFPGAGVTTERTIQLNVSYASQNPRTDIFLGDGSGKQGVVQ

B2: anti-CD33 antibody 6C7H31 (antibody, V domains shown)
VH: EVQLVESGGGLVQPGGSLRLSCAASGSTFSEYDMLWVRQAPGKGLEWVGEIRLKSNNYVTNYAASVKGRFTISRDDSKNSVYLQMNSLKTEDTGVYYCTRAGYYVPFAYWGQGTLVTVSS
VL: QPVLTQSPSASASLGASVKLTCTLSSQHSTYTIEWYQQQPEKGPRYLMELKKEGSHSTGDGIPDRFSGSSSGAERYLTISSLQSEDEADYYCGVGVTIKEQFVYVFGGGTKLTVL
Relative maximal binding (cyno/human): 0.02

B6: anti-CD33 antibody 6C7H33 (antibody, V domains shown)
VH: B2 VH
VL: B2 VL with P2L, V3M, E41G, V96H
Relative maximal binding (cyno/human): 0.01

B7: anti-CD33 antibody 6C7H32 (antibody, V domains shown)
VH: B2 VH
VL: B2 VL with P2L, V3M, E41G, V96H, V105E
Relative maximal binding (cyno/human): 0.01

Further lines, results first:

Relative maximal binding (cyno/human): 0.02
B1: anti-CD33 antibody 6C7H39 (antibody, V domains shown)
VH: B2 VH with S27F, S77T
VL: B2 VL

Relative maximal binding (cyno/human): 0.04
B3: anti-CD33 antibody 6C7H35 (antibody, V domains shown)
VH: B2 VH with S27F, D33A, A108T
VL: B2 VL

Relative maximal binding (cyno/human): 0.01
B4: anti-CD33 antibody 6C7H34 (antibody, V domains shown)
VH: B2 VH
VL: B2 VL with V3M, E41G, V96L

Relative maximal binding (cyno/human): 0.03
B5: anti-CD33 antibody 6C7H40 (antibody, V domains shown)
VH: B2 VH with S27F, S77T
VL: B2 VL with P2L, V3M, E41G, V96H, V105E
